Assay in all cases: ELISA; affinity-based ELISA; 5 ug/ml of each dockerin-containing enzyme immobilised on a MaxiSorp plate; CBM-Coh modules applied at 0.01 ng/ml to 100 ug/ml (Fig. S4: 1 or 10 ug/ml); detected with rabbit anti-CBD
A general note: An ELISA detects its analyte on a solid surface through an enzyme-linked reagent.

In assay [1] the target is GH44A (GH44A-Doc), dockerin-containing glycoside hydrolase of C. saccharoperbutylacetonicum (Clostridium saccharoperbutylacetonicum N1-4 (HMT)).
Assay [2] concerns the target GH74A (GH74A-Doc), dockerin-containing glycoside hydrolase of C. saccharoperbutylacetonicum (Clostridium saccharoperbutylacetonicum N1-4 (HMT)).
Assay [3] deals with GH9B (GH9B-CBM3c-Doc), dockerin-containing glycoside hydrolase of C. saccharoperbutylacetonicum (Clostridium saccharoperbutylacetonicum N1-4 (HMT)).
Assay [4] deals with GH48A (GH48A-Doc), dockerin-containing glycoside hydrolase of C. saccharoperbutylacetonicum (Clostridium saccharoperbutylacetonicum N1-4 (HMT)).
Assay [5] deals with GH5B (GH5B-Doc), dockerin-containing glycoside hydrolase of C. saccharoperbutylacetonicum (Clostridium saccharoperbutylacetonicum N1-4 (HMT)).

For “X2-Coh2 of the scaffoldin ScaA, fused to a CBM cassette (domain or fragment)”, the pEC50 is 4 in assay [1], 4 in assay [2] and 2.4 in assay [3].
In the case of “X2-Coh1 of the scaffoldin ScaA, fused to a CBM cassette (domain or fragment)”, the pEC50 in assay [1] was determined as 4; in assay [4], 3; in assay [5], 2.5; in assay [3], 0.7.

For orientation: pEC50 means −log10 of the EC50, conventionally taken in molar units. Read a high pEC50 as a low EC50.

These data come from article PMC7157769.
